The values that follow come from US20260015399A1 (Boehringer Ingelheim, published 2026).

*1 amine or outer side, *2 acyl side, *3 side chain or, on linkers, in order; H or OH if unused. Side-chain parts run from the residue outwards. The star is where a group is joined. C18 diacid = O=C(O)CCCCCCCCCCCCCCCCC(=O)*; γGlu = O=C(O)[C@H](CCC(=O)[*:2])N[*:1]; Isovaleryl = CC(C)CC(=O)*; Ahx = NCCCCCC(=O)O

Usually Ki stands for a measure of affinity in units of concentration, obtained from inhibition or displacement.

The chains are these.
T1: human NPY2 receptor (human, UniProt P49146 1-381)
T1 construct: whole, on cells; also called hNPY2-R; hNPY2R
T1 sequence (looked up): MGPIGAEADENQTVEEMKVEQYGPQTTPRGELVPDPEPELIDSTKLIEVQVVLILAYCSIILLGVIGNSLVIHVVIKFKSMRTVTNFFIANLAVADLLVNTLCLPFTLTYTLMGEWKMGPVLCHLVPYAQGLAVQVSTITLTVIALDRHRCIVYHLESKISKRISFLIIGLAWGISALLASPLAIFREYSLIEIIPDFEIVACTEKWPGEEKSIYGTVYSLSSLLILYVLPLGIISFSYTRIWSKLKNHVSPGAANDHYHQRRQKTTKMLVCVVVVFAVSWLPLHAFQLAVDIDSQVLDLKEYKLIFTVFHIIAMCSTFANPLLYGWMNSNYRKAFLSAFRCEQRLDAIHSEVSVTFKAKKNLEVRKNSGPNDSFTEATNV

B1: Compound 159 (peptide)
peptide: Isovaleryl-APEK([Ahx-γGlu-C18 diacid])PEADAEPEELQRYYISLRHYYNWLTRQRY-NH2
SMILES: CC[C@H](C)[C@H](NC(=O)[C@H](Cc1ccc(O)cc1)NC(=O)[C@H](Cc1ccc(O)cc1)NC(=O)[C@H](CCCNC(=N)N)NC(=O)[C@H](CCC(N)=O)NC(=O)[C@H](CC(C)C)NC(=O)[C@H](CCC(=O)O)NC(=O)[C@H](CCC(=O)O)NC(=O)[C@@H]1CCCN1C(=O)[C@H](CCC(=O)O)NC(=O)[C@H](C)NC(=O)[C@H](CC(=O)O)NC(=O)[C@H](C)NC(=O)[C@H](CCC(=O)O)NC(=O)[C@@H]1CCCN1C(=O)[C@H](CCCCNC(=O)CCCCCNC(=O)CC[C@H](NC(=O)CCCCCCCCCCCCCCCCC(=O)O)C(=O)O)NC(=O)[C@H](CCC(=O)O)NC(=O)[C@@H]1CCCN1C(=O)[C@H](C)NC(=O)CC(C)C)C(=O)N[C@@H](CO)C(=O)N[C@@H](CC(C)C)C(=O)N[C@@H](CCCNC(=N)N)C(=O)N[C@@H](Cc1c[nH]cn1)C(=O)N[C@@H](Cc1ccc(O)cc1)C(=O)N[C@@H](Cc1ccc(O)cc1)C(=O)N[C@@H](CC(N)=O)C(=O)N[C@@H](Cc1c[nH]c2ccccc12)C(=O)N[C@@H](CC(C)C)C(=O)N[C@H](C(=O)N[C@@H](CCCNC(=N)N)C(=O)N[C@@H](CCC(N)=O)C(=O)N[C@@H](CCCNC(=N)N)C(=O)N[C@@H](Cc1ccc(O)cc1)C(N)=O)[C@@H](C)O
B2: Compound 162 (peptide)
peptide: Isovaleryl-APEK([Ahx-γGlu-C18 diacid])PEEDATPEEEQRYYVSLRHYYNWLTRQRY-NH2
SMILES: CC(C)CC(=O)N[C@@H](C)C(=O)N1CCC[C@H]1C(=O)N[C@@H](CCC(=O)O)C(=O)N[C@@H](CCCCNC(=O)CCCCCNC(=O)CC[C@H](NC(=O)CCCCCCCCCCCCCCCCC(=O)O)C(=O)O)C(=O)N1CCC[C@H]1C(=O)N[C@@H](CCC(=O)O)C(=O)N[C@@H](CCC(=O)O)C(=O)N[C@@H](CC(=O)O)C(=O)N[C@@H](C)C(=O)N[C@H](C(=O)N1CCC[C@H]1C(=O)N[C@@H](CCC(=O)O)C(=O)N[C@@H](CCC(=O)O)C(=O)N[C@@H](CCC(=O)O)C(=O)N[C@@H](CCC(N)=O)C(=O)N[C@@H](CCCNC(=N)N)C(=O)N[C@@H](Cc1ccc(O)cc1)C(=O)N[C@@H](Cc1ccc(O)cc1)C(=O)N[C@H](C(=O)N[C@@H](CO)C(=O)N[C@@H](CC(C)C)C(=O)N[C@@H](CCCNC(=N)N)C(=O)N[C@@H](Cc1c[nH]cn1)C(=O)N[C@@H](Cc1ccc(O)cc1)C(=O)N[C@@H](Cc1ccc(O)cc1)C(=O)N[C@@H](CC(N)=O)C(=O)N[C@@H](Cc1c[nH]c2ccccc12)C(=O)N[C@@H](CC(C)C)C(=O)N[C@H](C(=O)N[C@@H](CCCNC(=N)N)C(=O)N[C@@H](CCC(N)=O)C(=O)N[C@@H](CCCNC(=N)N)C(=O)N[C@@H](Cc1ccc(O)cc1)C(N)=O)[C@@H](C)O)C(C)C)[C@@H](C)O
B3: Compound 166 (peptide)
peptide: Isovaleryl-APAK([Ahx-γGlu-C18 diacid])PEEDASPEELQRYYVELRHYYNWLTRQRY-NH2
SMILES: CC(C)CC(=O)N[C@@H](C)C(=O)N1CCC[C@H]1C(=O)N[C@@H](C)C(=O)N[C@@H](CCCCNC(=O)CCCCCNC(=O)CC[C@H](NC(=O)CCCCCCCCCCCCCCCCC(=O)O)C(=O)O)C(=O)N1CCC[C@H]1C(=O)N[C@@H](CCC(=O)O)C(=O)N[C@@H](CCC(=O)O)C(=O)N[C@@H](CC(=O)O)C(=O)N[C@@H](C)C(=O)N[C@@H](CO)C(=O)N1CCC[C@H]1C(=O)N[C@@H](CCC(=O)O)C(=O)N[C@@H](CCC(=O)O)C(=O)N[C@@H](CC(C)C)C(=O)N[C@@H](CCC(N)=O)C(=O)N[C@@H](CCCNC(=N)N)C(=O)N[C@@H](Cc1ccc(O)cc1)C(=O)N[C@@H](Cc1ccc(O)cc1)C(=O)N[C@H](C(=O)N[C@@H](CCC(=O)O)C(=O)N[C@@H](CC(C)C)C(=O)N[C@@H](CCCNC(=N)N)C(=O)N[C@@H](Cc1c[nH]cn1)C(=O)N[C@@H](Cc1ccc(O)cc1)C(=O)N[C@@H](Cc1ccc(O)cc1)C(=O)N[C@@H](CC(N)=O)C(=O)N[C@@H](Cc1c[nH]c2ccccc12)C(=O)N[C@@H](CC(C)C)C(=O)N[C@H](C(=O)N[C@@H](CCCNC(=N)N)C(=O)N[C@@H](CCC(N)=O)C(=O)N[C@@H](CCCNC(=N)N)C(=O)N[C@@H](Cc1ccc(O)cc1)C(N)=O)[C@@H](C)O)C(C)C
B4: Compound 161 (peptide)
peptide: Isovaleryl-APAK([Ahx-γGlu-C18 diacid])PEEAAEPEELQRYYVALRHYYNWLTRQRY-NH2
SMILES: CC(C)CC(=O)N[C@@H](C)C(=O)N1CCC[C@H]1C(=O)N[C@@H](C)C(=O)N[C@@H](CCCCNC(=O)CCCCCNC(=O)CC[C@H](NC(=O)CCCCCCCCCCCCCCCCC(=O)O)C(=O)O)C(=O)N1CCC[C@H]1C(=O)N[C@@H](CCC(=O)O)C(=O)N[C@@H](CCC(=O)O)C(=O)N[C@@H](C)C(=O)N[C@@H](C)C(=O)N[C@@H](CCC(=O)O)C(=O)N1CCC[C@H]1C(=O)N[C@@H](CCC(=O)O)C(=O)N[C@@H](CCC(=O)O)C(=O)N[C@@H](CC(C)C)C(=O)N[C@@H](CCC(N)=O)C(=O)N[C@@H](CCCNC(=N)N)C(=O)N[C@@H](Cc1ccc(O)cc1)C(=O)N[C@@H](Cc1ccc(O)cc1)C(=O)N[C@H](C(=O)N[C@@H](C)C(=O)N[C@@H](CC(C)C)C(=O)N[C@@H](CCCNC(=N)N)C(=O)N[C@@H](Cc1c[nH]cn1)C(=O)N[C@@H](Cc1ccc(O)cc1)C(=O)N[C@@H](Cc1ccc(O)cc1)C(=O)N[C@@H](CC(N)=O)C(=O)N[C@@H](Cc1c[nH]c2ccccc12)C(=O)N[C@@H](CC(C)C)C(=O)N[C@H](C(=O)N[C@@H](CCCNC(=N)N)C(=O)N[C@@H](CCC(N)=O)C(=O)N[C@@H](CCCNC(=N)N)C(=O)N[C@@H](Cc1ccc(O)cc1)C(N)=O)[C@@H](C)O)C(C)C
B5: Compound 164 (peptide)
peptide: Isovaleryl-APEK([Ahx-γGlu-C18 diacid])PEEDATPEEIQRYYQSLRHYYNWLTRQRY-NH2
SMILES: CC[C@H](C)[C@H](NC(=O)[C@H](CCC(=O)O)NC(=O)[C@H](CCC(=O)O)NC(=O)[C@@H]1CCCN1C(=O)[C@@H](NC(=O)[C@H](C)NC(=O)[C@H](CC(=O)O)NC(=O)[C@H](CCC(=O)O)NC(=O)[C@H](CCC(=O)O)NC(=O)[C@@H]1CCCN1C(=O)[C@H](CCCCNC(=O)CCCCCNC(=O)CC[C@H](NC(=O)CCCCCCCCCCCCCCCCC(=O)O)C(=O)O)NC(=O)[C@H](CCC(=O)O)NC(=O)[C@@H]1CCCN1C(=O)[C@H](C)NC(=O)CC(C)C)[C@@H](C)O)C(=O)N[C@@H](CCC(N)=O)C(=O)N[C@@H](CCCNC(=N)N)C(=O)N[C@@H](Cc1ccc(O)cc1)C(=O)N[C@@H](Cc1ccc(O)cc1)C(=O)N[C@@H](CCC(N)=O)C(=O)N[C@@H](CO)C(=O)N[C@@H](CC(C)C)C(=O)N[C@@H](CCCNC(=N)N)C(=O)N[C@@H](Cc1c[nH]cn1)C(=O)N[C@@H](Cc1ccc(O)cc1)C(=O)N[C@@H](Cc1ccc(O)cc1)C(=O)N[C@@H](CC(N)=O)C(=O)N[C@@H](Cc1c[nH]c2ccccc12)C(=O)N[C@@H](CC(C)C)C(=O)N[C@H](C(=O)N[C@@H](CCCNC(=N)N)C(=O)N[C@@H](CCC(N)=O)C(=O)N[C@@H](CCCNC(=N)N)C(=O)N[C@@H](Cc1ccc(O)cc1)C(N)=O)[C@@H](C)O
B6: Compound 167 (peptide)
peptide: Isovaleryl-APAK([Ahx-γGlu-C18 diacid])PEEAAEPEEIQRYYVALRHYYNWLTRQRY-NH2
SMILES: CC[C@H](C)[C@H](NC(=O)[C@H](CCC(=O)O)NC(=O)[C@H](CCC(=O)O)NC(=O)[C@@H]1CCCN1C(=O)[C@H](CCC(=O)O)NC(=O)[C@H](C)NC(=O)[C@H](C)NC(=O)[C@H](CCC(=O)O)NC(=O)[C@H](CCC(=O)O)NC(=O)[C@@H]1CCCN1C(=O)[C@H](CCCCNC(=O)CCCCCNC(=O)CC[C@H](NC(=O)CCCCCCCCCCCCCCCCC(=O)O)C(=O)O)NC(=O)[C@H](C)NC(=O)[C@@H]1CCCN1C(=O)[C@H](C)NC(=O)CC(C)C)C(=O)N[C@@H](CCC(N)=O)C(=O)N[C@@H](CCCNC(=N)N)C(=O)N[C@@H](Cc1ccc(O)cc1)C(=O)N[C@@H](Cc1ccc(O)cc1)C(=O)N[C@H](C(=O)N[C@@H](C)C(=O)N[C@@H](CC(C)C)C(=O)N[C@@H](CCCNC(=N)N)C(=O)N[C@@H](Cc1c[nH]cn1)C(=O)N[C@@H](Cc1ccc(O)cc1)C(=O)N[C@@H](Cc1ccc(O)cc1)C(=O)N[C@@H](CC(N)=O)C(=O)N[C@@H](Cc1c[nH]c2ccccc12)C(=O)N[C@@H](CC(C)C)C(=O)N[C@H](C(=O)N[C@@H](CCCNC(=N)N)C(=O)N[C@@H](CCC(N)=O)C(=O)N[C@@H](CCCNC(=N)N)C(=O)N[C@@H](Cc1ccc(O)cc1)C(N)=O)[C@@H](C)O)C(C)C

The test has as its target T1, human NPY2 receptor. The test is described as follows: RLB: displacement of 125I-PYY(1-36) from hNPY2R membranes.
B1 had a Ki of 2.75 nM.
Under B2 stands 14.9 nM; under B3, 2.05 nM; under B4, 4 nM.
On to B5, for which the inhibition constant Ki worked out at 2.8 nM.
Under B6 stands 4.58 nM.
